Molecular target: Bub1p fusion to the Gal4 DNA binding domain (budding yeast) (UniProt P41695)
Experiment: two-hybrid

Sequence of UniProt P41695 (P41695 whole entry, the tested form may be a part): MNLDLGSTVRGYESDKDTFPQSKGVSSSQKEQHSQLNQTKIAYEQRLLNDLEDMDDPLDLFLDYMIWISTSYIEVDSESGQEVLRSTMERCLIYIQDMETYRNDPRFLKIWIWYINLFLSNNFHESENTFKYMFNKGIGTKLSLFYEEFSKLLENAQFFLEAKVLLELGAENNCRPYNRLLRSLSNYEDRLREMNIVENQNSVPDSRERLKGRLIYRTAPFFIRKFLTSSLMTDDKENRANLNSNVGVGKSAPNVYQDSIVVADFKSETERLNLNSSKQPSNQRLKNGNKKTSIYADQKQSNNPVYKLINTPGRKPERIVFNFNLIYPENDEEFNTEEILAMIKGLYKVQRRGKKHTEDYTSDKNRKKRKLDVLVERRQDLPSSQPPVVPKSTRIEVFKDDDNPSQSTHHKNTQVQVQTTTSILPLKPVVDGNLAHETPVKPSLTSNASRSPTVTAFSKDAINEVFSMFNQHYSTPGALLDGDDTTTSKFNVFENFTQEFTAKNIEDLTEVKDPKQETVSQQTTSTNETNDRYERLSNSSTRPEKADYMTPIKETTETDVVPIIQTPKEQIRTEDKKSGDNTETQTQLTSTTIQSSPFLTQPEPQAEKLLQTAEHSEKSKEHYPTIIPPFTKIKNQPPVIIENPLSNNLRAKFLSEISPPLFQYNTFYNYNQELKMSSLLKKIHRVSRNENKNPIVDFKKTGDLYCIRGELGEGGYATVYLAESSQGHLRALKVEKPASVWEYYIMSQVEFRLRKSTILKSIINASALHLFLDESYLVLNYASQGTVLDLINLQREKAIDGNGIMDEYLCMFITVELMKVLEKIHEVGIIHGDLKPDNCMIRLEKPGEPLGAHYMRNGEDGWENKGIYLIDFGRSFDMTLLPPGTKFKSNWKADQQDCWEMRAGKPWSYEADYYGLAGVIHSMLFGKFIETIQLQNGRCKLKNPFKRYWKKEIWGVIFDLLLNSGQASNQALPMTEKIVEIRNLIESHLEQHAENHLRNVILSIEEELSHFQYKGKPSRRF

| β-galactosidase activity (two-hybrid) [Miller units] | Binder |
| --- | --- |
| 100 | Cdc20p fusion to the transcriptional activation domain (natural protein) MPESSRDKGNAAISGNRSVLSIASPTKLNILSSDWSRNQGKVSKNSLKRSSSLNIRNSKRPSLQASANSIYSRPKITIGAPPLIRRDSSFFKDEFDAKKDKATFSAYSSRSYPTIGSESVVSQTSLSQPTTSREVDEQFTVAADRYIPILQGASQNKVDPETLHEALPPPNASPISHLRAQTKIVFKQNVAEACGLDMNKRILQYMPEPPKCSSLRQKSYIMKKRTHYSYQQEQKIPDLIKLRKINTNPERILDAPGFQDDFYLNLLSWSKKNVLAIALDTALYLWNATTGDVSLLTDFENTTICSVTWSDDDCHISIGKEDGNTEIWDVETMSLIRTMRSGLGVRIGSLSWLDTLIATGSRSGEIQINDVRIKQHIVSTWAEHTGEVCGLSYKSDGLQLASGGNDNTVMIWDTRTSLPQFSKKTHTAAVKALSWCPYSPNILASGGGQTDKHIHFWNSITGARVGSINTGSQVSSLHWGQSHTSTNGGMMNKEIVATGGNPENAISVYNYETKFKVAEVVHAHEARICCSQLSPDGTTLATVGGDENLKFYKIFDPRCTGRSREDGLMDGMLGLIGKEGCRTNDKENRSKNSSEIHTRRPSSTSQYLIR |
| 55 | Bub3p fusion to the transcriptional activation domain (natural protein) MQIVQIEQAPKDYISDIKIIPSKSLLLITSWDGSLTVYKFDIQAKNVDLLQSLRYKHPLLCCNFIDNTDLQIYVGTVQGEILKVDLIGSPSFQALTNNEANLGICRICKYGDDKLIAASWDGLIEVIDPRNYGDGVIAVKNLNSNNTKVKNKIFTMDTNSSRLIVGMNNSQVQWFRLPLCEDDNGTIEESGLKYQIRDVALLPKEQEGYACSSIDGRVAVEFFDDQGDDYNSSKRFAFRCHRLNLKDTNLAYPVNSIEFSPRHKFLYTAGSDGIISCWNLQTRKKIKNFAKFNEDSVVKIACSDNILCLATSDDTFKTNAAIDQTIELNASSIYIIFDYEN |

— publication PMC2174553
